From patent publication US20200102402A1 (ZYMEDI, published 2020) come the findings set out here.

For test [1], the target named is T1, KRS fragment with deletion of amino acids at positions 1-71 in the N-terminus (human, UniProt Q15046 72-597).
T1 construct: also called fragment 1; denoted by 1
Kind of test: western blotting of lysate of transformed A549 cells. As to the method:
As described above, the scFv antibodies extracted from the periplasm were used to investigate using western blotting whether the scFv antibodies bound to the full-length KRS or respective KRS N-terminal fragments. Then, 30 μg of HCT116 cell lysate was electrophoresed through SDS PAGE, transferred onto PVDF membrane, and then blocked with 3% skim milk. Thereafter, the extracted scFv antibodies were added at 1.0 μg/μl, followed by incubation for 1 h. The unbound scFv antibodies were washed out, and for detection, the scFv binding with antigens were incubated with anti-HA secondary antibodies linked with horseradish peroxidase (HRP), and film sensitization was carried out using ECL reagent as a substrate in a dark room. The sensitized bands were compared with standard molecule markers to identify bands corresponding to sizes of the full-length KRS and the respective fragments.
(In western blotting, separated proteins are transferred to a membrane and probed.)

In test [2] the target is T2, KRS fragment composed of amino acid residues 1-200 in the N-terminus (human, UniProt Q15046 1-200).
T2 construct: also called fragment 2; denoted by 2
T2 sequence (Q15046 1-200): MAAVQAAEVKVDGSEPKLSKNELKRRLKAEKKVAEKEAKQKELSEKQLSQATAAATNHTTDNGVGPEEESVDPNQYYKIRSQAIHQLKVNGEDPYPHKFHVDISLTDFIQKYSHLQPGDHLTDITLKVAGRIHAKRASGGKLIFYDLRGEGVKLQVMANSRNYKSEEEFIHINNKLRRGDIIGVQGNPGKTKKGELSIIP
Kind of test: Western blot on lysate of A549 cells transformed with the KRS fragment 1-200 (2), probed with the scFv.

The target of test [3] is T3, human lysyl-tRNA synthetase (KRS), full-length (human, UniProt Q15046 1-597).
T3 construct: also called native KRS; full-length KRS
T3 sequence (Q15046 whole entry): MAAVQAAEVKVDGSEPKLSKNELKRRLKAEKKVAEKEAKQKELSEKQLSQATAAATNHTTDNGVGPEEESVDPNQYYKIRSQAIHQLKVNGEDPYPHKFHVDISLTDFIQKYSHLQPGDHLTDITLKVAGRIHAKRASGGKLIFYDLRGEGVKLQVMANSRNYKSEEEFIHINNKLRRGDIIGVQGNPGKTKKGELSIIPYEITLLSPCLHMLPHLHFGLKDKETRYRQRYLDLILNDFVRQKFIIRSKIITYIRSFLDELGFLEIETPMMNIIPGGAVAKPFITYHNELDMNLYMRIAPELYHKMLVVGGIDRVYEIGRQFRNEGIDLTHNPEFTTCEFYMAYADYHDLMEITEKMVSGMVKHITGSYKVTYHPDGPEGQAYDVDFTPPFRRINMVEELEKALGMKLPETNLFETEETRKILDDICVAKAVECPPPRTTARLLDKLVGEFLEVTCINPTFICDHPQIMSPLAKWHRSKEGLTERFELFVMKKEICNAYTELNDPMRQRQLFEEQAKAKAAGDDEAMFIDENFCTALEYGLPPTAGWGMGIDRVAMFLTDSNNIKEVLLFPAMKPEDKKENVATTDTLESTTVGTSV
Kind of test: Western blot on lysate of A549 cells transformed with full-length KRS (F), probed with the scFv.

Test [4] addresses T4, myc-KRS T52D (active mutant) (human, UniProt Q15046 2-597).
T4 construct: Active mutant whose N-terminal region is exposed on the cell membrane; also called KRS-T52D mutant; T52D-KRS
As to the kind of experiment: Immunofluorescence on A549 cells transfected with Myc tagged KRS-T52D, fixed with paraformaldehyde. As to the method: After incubation for 24 h, the cells were incubated using serum-free media (RPMI 1640 media) at 37° C. for 1 h. Thereafter, the cells were treated with 10 μg/ml laminin (L2020; Sigma) and then incubated at 37° C. for 1 h.
The prepared samples were washed with PBS (4° C.), fixed by the treatment with 4% paraformaldehyde for 10 min, and then washed. The samples were blocked with CAS block for 10 min, and treated with the scFv and Myc antibodies for 2 h. Thereafter, the unbound antibodies were washed out, and incubated with secondary antibodies for 1 h in a dark room. DAPI staining was performed for 10 min before mounting.

A further test addresses T5, KRS 1-207 aa (human, UniProt Q15046 1-207).
T5 construct: also called KRS N-terminal region (SPR antigen)
As to the kind of experiment: SPR Biacore 2000, KRS 1-207 immobilised on CM5, antibody 6.25-100 nM as analyte. As to the method:
After KRS was immobilized on a sensor chip (CM5, GE healthcare, US), antibody proteins (6.25-100 nM), which were serially diluted with HES buffer solution (10 mM HEPES, pH 7.4, 150 mM NaCl, 3 mM EDTA, 0.005% surfactant P20), were allowed to flow at a rate of 30 μl/min for 3 min, and 1 M NaCl/20 mM NaOH was allowed to flow at a rate of 30 μl/min for 3 min, thereby inducing the dissociation of proteins bound to the antigen. Mock IgG was used as control. Specific experiment conditions are as follows:
The affinity was obtained from the kinetic rate constants (ka and kd) and equilibrium dissociation constants (KD) by using BIA evaluation ver. 3.2 software.
On the technique in general: In SPR one partner is held on a chip, and binding of the other changes the refractive index at the surface.

T5 sequence (Q15046 1-207): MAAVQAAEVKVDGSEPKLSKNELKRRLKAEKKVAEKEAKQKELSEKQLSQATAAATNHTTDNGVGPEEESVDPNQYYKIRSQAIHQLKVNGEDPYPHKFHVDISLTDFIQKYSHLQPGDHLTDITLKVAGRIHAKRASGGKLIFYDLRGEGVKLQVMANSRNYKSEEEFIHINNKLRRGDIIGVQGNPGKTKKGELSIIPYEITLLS
T1 sequence (Q15046 72-597, stated change not applied): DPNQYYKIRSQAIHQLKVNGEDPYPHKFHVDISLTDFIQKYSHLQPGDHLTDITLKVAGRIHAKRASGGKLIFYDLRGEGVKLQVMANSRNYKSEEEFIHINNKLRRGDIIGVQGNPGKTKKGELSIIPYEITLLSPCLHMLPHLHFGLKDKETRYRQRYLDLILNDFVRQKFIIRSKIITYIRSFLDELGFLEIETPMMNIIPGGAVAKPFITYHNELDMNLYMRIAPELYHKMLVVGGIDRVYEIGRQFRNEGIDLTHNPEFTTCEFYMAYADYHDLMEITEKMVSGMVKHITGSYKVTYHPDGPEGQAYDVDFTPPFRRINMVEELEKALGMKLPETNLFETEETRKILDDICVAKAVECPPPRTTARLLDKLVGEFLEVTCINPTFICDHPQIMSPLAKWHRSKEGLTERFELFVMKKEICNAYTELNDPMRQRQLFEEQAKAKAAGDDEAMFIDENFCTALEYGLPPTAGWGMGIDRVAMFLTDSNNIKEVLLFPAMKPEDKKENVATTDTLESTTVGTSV
T4 sequence (Q15046 2-597 T52D): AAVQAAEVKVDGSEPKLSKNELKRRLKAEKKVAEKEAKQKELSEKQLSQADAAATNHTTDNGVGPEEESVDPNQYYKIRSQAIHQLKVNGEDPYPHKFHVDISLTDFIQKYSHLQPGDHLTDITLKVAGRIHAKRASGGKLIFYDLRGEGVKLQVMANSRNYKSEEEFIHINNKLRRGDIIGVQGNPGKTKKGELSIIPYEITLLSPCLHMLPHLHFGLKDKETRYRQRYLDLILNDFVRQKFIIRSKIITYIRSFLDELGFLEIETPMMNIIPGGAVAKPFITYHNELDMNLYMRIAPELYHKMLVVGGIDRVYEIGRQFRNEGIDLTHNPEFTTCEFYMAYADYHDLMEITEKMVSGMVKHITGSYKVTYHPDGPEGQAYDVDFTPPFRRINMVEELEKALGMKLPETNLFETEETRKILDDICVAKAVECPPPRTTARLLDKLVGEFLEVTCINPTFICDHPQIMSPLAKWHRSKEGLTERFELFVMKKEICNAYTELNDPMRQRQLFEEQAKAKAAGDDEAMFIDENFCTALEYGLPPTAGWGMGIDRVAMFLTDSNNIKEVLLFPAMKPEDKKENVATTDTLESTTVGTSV

B1: N5 scFv (scFv)
scFv: EVQLLESGGGLVQPGGSLRLSCAASGFTFSDYAMSWVRQAPGKGLEWVSWIYSGSGNKYYADSVKGRFTISRDNSKNTLYLQMNSLRAEDTAVYYCARMGLDFDYWGQGTLVTVSSGGGGSGGGGSGGGGSQSVLTQPPSASGTPGQRVTISCTGSSSNIGNNYVSWYQQLPGTAPKLLIYDDNQRPSGVPDRFSGSKSGTSASLAISGLRSEDEADYYCGTWDDSLSAYVFGGGTKLTVL
notes: HA-tagged scFv purified on Ni-NTA; also called scFv N5 clone
Regarding B1, the binding result is recorded as “no binding” in test [1], “binds” in test [2], “binds” in test [3] and “binds” in test [4].

B2: N5 IgG (antibody, V domains shown)
VH: EVQLLESGGGLVQPGGSLRLSCAASGFTFSDYAMSWVRQAPGKGLEWVSWIYSGSGNKYYADSVKGRFTISRDNSKNTLYLQMNSLRAEDTAVYYCARMGLDFDYWGQGTLVTVSS
VL: QSVLTQPPSASGTPGQRVTISCTGSSSNIGNNYVSWYQQLPGTAPKLLIYDDNQRPSGVPDRFSGSKSGTSASLAISGLRSEDEADYYCGTWDDSLSAYVFGGGTKLTVL
notes: IgG made from the scFv variable regions
A word on the Kd: it is the constant that tells how readily two partners part at equilibrium. The low end stands for higher affinity, the high end for lower affinity. One may read the koff as the rate constant with which the complex falls apart. What is called kon is a measure of how fast the partners come together. The low end stands for slower complex formation, the high end for faster complex formation. With B2, in the test with KRS 1-207 aa, the affinity, expressed as Kd, was 1.05 nM; the koff is 0.00328 s⁻¹; the kon is 3.13e+06 M⁻¹ s⁻¹.
